Target: T1, KAP1 RBCC (wild type), SPR analyte (human (by the printed UniProt entry), UniProt Q13263 50-413)
T1 construct: KAP1 (TRIM28) RBCC motif; probably as in Stoll et al, 2019; also called WT KAP1 RBCC; wild-type KAP1; source: E. coli BL21(DE3)
Assay: SPR; Biacore T200, CM5 chip; MBP-KRAB immobilised (about 300 RU ZNF93 WT, 600 RU E35R); KAP1 RBCC flowed, 1:2 dilution series from 40 μM; 20 mM HEPES pH 8.0, 0.5 M NaCl, 0.5 mM TCEP, 20°C; biphasic kinetic model
Details: both partners purified

T1 sequence (Q13263 50-413): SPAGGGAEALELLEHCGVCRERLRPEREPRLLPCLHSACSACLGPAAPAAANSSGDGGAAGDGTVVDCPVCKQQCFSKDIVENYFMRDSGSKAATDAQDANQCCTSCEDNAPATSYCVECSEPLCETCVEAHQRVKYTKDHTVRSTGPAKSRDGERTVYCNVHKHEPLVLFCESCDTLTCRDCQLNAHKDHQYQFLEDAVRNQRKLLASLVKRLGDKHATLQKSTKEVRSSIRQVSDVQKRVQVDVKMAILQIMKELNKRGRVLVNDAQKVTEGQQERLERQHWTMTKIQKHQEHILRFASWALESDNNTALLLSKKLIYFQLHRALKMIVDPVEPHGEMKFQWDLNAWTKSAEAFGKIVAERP

B1: MBP-KRAB (ZNF93 KRAB E35R) (domain or fragment)
chain: not shown
notes: ZNF93, human, residues 2-71 (KRAB domain), E35R; also called ZNF93 E35R; source: E. coli BL21(DE3); not shown: MBP, N-terminal, kept
Kd: 198 nM

B2: MBP-KRAB (ZNF93 KRAB, wild type) (domain or fragment)
chain: not shown
notes: ZNF93, human, residues 2-71 (KRAB domain); The purification of MBP-KRAB alone is not described; also called ZNF93 WT; source: E. coli BL21(DE3); not shown: MBP, N-terminal, kept
Kd: 7.5 nM

Source: publication PMC9753469, “Structure and functional mapping of the KRAB‐KAP1 repressor complex” (The EMBO Journal, 2022)
